In patent US20090191117A1:
Each block holds one substance with its values, some of them ahead of it.

Columns and labels:
[1] = biological target: αvβ3 and αvβ5 integrins on A375S2 human melanoma cells (human) (UniProt P06756); test: cell-based or functional assay
[2] = biological target: αVβ3 and αVβ5 integrins on M21 human melanoma cells (human) (UniProt P06756); test: 125-I antibody saturation binding to M21 cells, n = 8
[3] = biological target: αvβ3 and αvβ5 integrins on A375S2 human melanoma cells (human) (UniProt P06756); test: 125-I antibody saturation binding to A375S2 cells, n = 7
[4] = biological target: αvβ3 and αvβ5 integrins on A375S2 human melanoma cells (human) (UniProt P06756); test: radiolabelled antibody binding to A375S2 cells, n = 2
[5] = biological target: αVβ3 and αVβ5 integrins on M21 human melanoma cells (human) (UniProt P06756); test: radiolabelled antibody binding to M21 cells, n = 2
[6] = biological target: αvβ5 integrin on HT-29 human colon carcinoma cells (human) (UniProt P06756); test: radiolabelled antibody binding to HT-29 cells, n = 1
Sequence of αvβ5 integrin on HT-29 human colon carcinoma cells (human) (P06756 31-1048, chain 1 of 2): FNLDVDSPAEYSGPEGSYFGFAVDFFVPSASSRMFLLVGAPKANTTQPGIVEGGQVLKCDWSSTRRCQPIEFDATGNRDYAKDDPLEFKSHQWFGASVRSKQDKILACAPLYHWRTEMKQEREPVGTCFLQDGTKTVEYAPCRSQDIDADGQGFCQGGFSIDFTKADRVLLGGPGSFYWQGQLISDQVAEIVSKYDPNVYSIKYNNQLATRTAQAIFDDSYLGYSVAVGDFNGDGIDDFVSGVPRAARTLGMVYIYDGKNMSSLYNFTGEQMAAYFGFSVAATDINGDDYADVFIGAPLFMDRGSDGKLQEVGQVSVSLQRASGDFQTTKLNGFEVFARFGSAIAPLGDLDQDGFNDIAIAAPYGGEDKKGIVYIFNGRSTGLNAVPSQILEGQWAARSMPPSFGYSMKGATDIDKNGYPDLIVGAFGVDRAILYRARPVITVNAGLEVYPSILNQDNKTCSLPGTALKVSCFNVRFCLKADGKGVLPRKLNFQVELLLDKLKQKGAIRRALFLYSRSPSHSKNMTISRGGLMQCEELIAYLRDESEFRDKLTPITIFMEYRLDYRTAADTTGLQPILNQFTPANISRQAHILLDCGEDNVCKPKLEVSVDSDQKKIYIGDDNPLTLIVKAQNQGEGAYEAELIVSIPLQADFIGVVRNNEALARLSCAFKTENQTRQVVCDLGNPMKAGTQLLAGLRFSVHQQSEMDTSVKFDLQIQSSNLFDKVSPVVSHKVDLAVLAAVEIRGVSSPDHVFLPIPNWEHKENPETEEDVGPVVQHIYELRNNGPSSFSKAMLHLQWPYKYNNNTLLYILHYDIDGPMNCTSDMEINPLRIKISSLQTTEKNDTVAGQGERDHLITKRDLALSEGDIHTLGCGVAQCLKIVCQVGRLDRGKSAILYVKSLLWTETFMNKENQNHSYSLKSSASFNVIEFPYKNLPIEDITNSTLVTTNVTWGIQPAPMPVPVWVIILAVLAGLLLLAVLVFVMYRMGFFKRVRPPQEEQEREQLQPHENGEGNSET
Sequence of αvβ5 integrin on HT-29 human colon carcinoma cells (human) (P18084 24-799, chain 2 of 2, further chain): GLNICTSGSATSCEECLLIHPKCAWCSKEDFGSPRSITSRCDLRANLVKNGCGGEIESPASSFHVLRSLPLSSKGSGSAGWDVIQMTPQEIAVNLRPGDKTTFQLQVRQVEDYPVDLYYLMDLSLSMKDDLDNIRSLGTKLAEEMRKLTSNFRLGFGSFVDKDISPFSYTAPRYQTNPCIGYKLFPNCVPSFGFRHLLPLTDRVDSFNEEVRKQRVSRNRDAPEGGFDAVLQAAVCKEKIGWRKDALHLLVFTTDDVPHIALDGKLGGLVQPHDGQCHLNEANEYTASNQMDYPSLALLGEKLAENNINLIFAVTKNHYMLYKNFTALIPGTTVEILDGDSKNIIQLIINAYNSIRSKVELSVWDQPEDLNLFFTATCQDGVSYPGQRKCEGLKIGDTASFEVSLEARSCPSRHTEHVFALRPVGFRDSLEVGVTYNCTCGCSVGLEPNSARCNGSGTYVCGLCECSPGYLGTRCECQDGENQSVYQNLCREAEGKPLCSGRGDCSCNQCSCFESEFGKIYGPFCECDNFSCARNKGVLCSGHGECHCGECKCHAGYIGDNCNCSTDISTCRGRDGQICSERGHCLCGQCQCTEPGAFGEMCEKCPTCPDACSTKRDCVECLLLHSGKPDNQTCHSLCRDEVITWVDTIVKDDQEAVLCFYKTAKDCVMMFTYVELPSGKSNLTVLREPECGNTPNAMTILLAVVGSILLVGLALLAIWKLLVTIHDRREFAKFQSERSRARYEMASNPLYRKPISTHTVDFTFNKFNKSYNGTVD

[7] = biological target: αvβ3 and αvβ5 integrins on A375S2 human melanoma cells (human) (UniProt P06756); test: radiolabelled antibody binding to A375S2 cells, n = 4
[8] = biological target: αVβ3 and αVβ5 integrins on M21 human melanoma cells (human) (UniProt P06756); test: 125-I Fab saturation binding to M21 cells, n = 7
[9] = biological target: αvβ3 and αvβ5 integrins on A375S2 human melanoma cells (human) (UniProt P06756); test: 125-I Fab saturation binding to A375S2 cells, n = 6

Sequence of αvβ3 and αvβ5 integrins on A375S2 human melanoma cells (human) (P06756 31-1048 A375S, chain 1 of 3): as the sequence (P06756 31-1048, chain 1 of 2) above, with A345S counted along it
Sequence of αvβ3 and αvβ5 integrins on A375S2 human melanoma cells (human) (P05106 27-788, chain 2 of 3, further chain): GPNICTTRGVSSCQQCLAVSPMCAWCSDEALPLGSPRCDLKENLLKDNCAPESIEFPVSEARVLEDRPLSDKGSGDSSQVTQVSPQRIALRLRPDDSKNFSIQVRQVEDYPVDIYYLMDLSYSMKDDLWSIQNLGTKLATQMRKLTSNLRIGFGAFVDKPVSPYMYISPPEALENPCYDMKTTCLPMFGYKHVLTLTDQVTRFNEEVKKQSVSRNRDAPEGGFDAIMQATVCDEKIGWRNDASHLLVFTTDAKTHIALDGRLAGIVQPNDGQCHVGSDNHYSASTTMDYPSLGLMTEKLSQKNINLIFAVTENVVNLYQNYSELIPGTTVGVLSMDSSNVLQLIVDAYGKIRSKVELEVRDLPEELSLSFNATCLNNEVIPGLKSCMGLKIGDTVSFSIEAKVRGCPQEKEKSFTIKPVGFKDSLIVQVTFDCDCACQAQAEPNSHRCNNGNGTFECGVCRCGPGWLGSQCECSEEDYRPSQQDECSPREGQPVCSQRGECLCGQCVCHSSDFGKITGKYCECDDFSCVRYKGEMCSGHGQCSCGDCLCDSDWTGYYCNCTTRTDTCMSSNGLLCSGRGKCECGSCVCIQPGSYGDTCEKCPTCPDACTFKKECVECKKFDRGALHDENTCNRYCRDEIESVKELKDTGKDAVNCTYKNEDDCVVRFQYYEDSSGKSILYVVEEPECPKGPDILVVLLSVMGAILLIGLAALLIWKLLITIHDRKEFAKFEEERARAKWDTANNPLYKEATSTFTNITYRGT
Sequence of αvβ3 and αvβ5 integrins on A375S2 human melanoma cells (human) (P18084 24-799, chain 3 of 3, further chain): as the sequence (P18084 24-799, chain 2 of 2, further chain) above

A375S.2 cell adhesion to fibrin, percent of adhesion without antibody, antibody at 10 µg/ml [1]: 43.3% | A375S.2 cell adhesion to fibrinogen, percent of adhesion without antibody, antibody at 10 µg/ml [1]: 11.4% | A375S.2 cell adhesion to gelatin, percent of adhesion without antibody, antibody at 10 µg/ml [1]: 23.2% | A375S.2 cell adhesion to vitronectin, percent of adhesion without antibody, antibody at 10 µg/ml [1]: 1.4% | Receptors per cell (receptors per cell) [2]: 200000 | Receptors per cell (receptors per cell) [3]: 120000
Substance: CNTO 95 (antibody)

Receptors per cell (receptors per cell) [4]: 300000
Substance: LM609 (antibody)

Receptors per cell (receptors per cell) [5]: 44000 | Receptors per cell (receptors per cell) [6]: 73000 | Receptors per cell (receptors per cell) [7]: 70000
Substance: P1F6 (antibody)

Receptors per cell (receptors per cell) [8]: 660000 | Receptors per cell (receptors per cell) [9]: 370000
Substance: ReoPro (c7E3 Fab)
